Tests used:
[1] = target: T1, TriTAC CD3 high aff. - C324; test: BLI (Octet), cynomolgus albumin (CSA)
T1 construct: Trispecific single chain: anti-PSMA sdAb, anti-HSA sdAb, anti-CD3 scFv, 6xHis (the tag is part of the entry); also called PSMA TriTAC CD3 high aff; C00324

[2] = target: T2, Tool TriTAC high aff. - C236; test: BLI (Octet), cynomolgus albumin (CSA)
T2 construct: Trispecific single chain: anti-PSMA sdAb, anti-HSA sdAb, anti-CD3 scFv, 6xHis (the tag is part of the entry); also called Tool PSMA TriTAC; C00236

PSMA TriTAC (HTS)-C364 [3] = target: T3, PSMA TriTAC (HTS)-C364; test: BLI (Octet), cynomolgus albumin (CSA)
T3 construct: Trispecific single chain: anti-PSMA sdAb, anti-HSA sdAb, anti-CD3 scFv, 6xHis (the tag is part of the entry); also called PSMA HTS TriTAC C364; C00364

PSMA TriTAC (HDS)-C363 [4] = target: T4, PSMA TriTAC (HDS)-C363; test: BLI (Octet), cynomolgus albumin (CSA)
T4 construct: Trispecific single chain: anti-PSMA sdAb, anti-HSA sdAb, anti-CD3 scFv, 6xHis (the tag is part of the entry); also called PSMA HDS TriTAC C363; C00363

PSMA-TriTAC (p8)-C362 [5] = target: T5, PSMA-TriTAC (p8)-C362; test: BLI (Octet), cynomolgus albumin (CSA)
T5 construct: Trispecific single chain: anti-PSMA sdAb, anti-HSA sdAb, anti-CD3 scFv, 6xHis (the tag is part of the entry); also called PSMA p8 TriTAC C362; C00362

PSMA TriTAC (HTS)-C364 [6] = target: T3, PSMA TriTAC (HTS)-C364; test: BLI (Octet), cynomolgus PSMA
PSMA TriTAC (HDS)-C363 [7] = target: T4, PSMA TriTAC (HDS)-C363; test: BLI (Octet), cynomolgus PSMA
[8] = target: T1, TriTAC CD3 high aff. - C324; test: BLI (Octet), human CD3-Flag-Fc on anti-human IgG Fc biosensors
PSMA TriTAC (HTS)-C364 [9] = target: T3, PSMA TriTAC (HTS)-C364; test: as above
PSMA TriTAC (HDS)-C363 [10] = target: T4, PSMA TriTAC (HDS)-C363; test: as above
PSMA-TriTAC (p8)-C362 [11] = target: T5, PSMA-TriTAC (p8)-C362; test: as above
PSMA TriTAC (HTS)-C364 [12] = target: T3, PSMA TriTAC (HTS)-C364; test: BLI (Octet), cynomolgus CD3
PSMA TriTAC (HDS)-C363 [13] = target: T4, PSMA TriTAC (HDS)-C363; test: BLI (Octet), cynomolgus CD3
PSMA-TriTAC (p8)-C362 [14] = target: T5, PSMA-TriTAC (p8)-C362; test: BLI (Octet), cynomolgus CD3
[15] = target: T1, TriTAC CD3 high aff. - C324; test: BLI (Octet), cynomolgus CD3
[16] = target: T2, Tool TriTAC high aff. - C236; test: BLI (Octet), cynomolgus CD3
hFc · flag · hPSMA = target: T6, hFc · flag · hPSMA (human, UniProt Q04609 44-750); test: BLI (OCTET), expression supernatants, hFc.flag.hPSMA
T6 construct: The order of the parts follows the printed label; also called human PSMA; h PSMA-Fc; not shown: human Fc (hFc); flag tag
Excerpt: Supernatants were used to estimate Kd, kon, and koff (or kdis) to human and cynomolgus PSMA using the OCTET® system. […] The parental sdAb is listed as Anti-PSMA wt sdAb.6his in Table 1.

T6 sequence (Q04609 44-750 limits assumed): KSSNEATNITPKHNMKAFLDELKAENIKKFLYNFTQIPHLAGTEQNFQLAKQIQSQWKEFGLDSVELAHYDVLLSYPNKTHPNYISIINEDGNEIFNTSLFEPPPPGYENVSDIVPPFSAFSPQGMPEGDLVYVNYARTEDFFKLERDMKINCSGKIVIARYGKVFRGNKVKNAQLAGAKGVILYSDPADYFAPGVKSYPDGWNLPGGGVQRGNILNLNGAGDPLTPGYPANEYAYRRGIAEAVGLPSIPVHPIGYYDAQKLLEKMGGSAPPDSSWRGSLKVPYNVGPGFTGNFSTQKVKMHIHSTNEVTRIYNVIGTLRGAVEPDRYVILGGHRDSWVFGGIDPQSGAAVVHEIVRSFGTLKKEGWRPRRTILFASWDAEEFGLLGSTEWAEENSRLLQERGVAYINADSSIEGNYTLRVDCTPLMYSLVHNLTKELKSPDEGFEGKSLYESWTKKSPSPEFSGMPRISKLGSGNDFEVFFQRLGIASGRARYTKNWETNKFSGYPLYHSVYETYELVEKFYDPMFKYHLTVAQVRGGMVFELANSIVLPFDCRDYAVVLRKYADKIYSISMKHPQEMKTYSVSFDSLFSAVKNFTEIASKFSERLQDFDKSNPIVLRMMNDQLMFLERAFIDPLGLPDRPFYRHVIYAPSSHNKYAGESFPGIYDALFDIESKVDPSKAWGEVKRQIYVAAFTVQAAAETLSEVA
T5 sequence (chain, as listed by the source): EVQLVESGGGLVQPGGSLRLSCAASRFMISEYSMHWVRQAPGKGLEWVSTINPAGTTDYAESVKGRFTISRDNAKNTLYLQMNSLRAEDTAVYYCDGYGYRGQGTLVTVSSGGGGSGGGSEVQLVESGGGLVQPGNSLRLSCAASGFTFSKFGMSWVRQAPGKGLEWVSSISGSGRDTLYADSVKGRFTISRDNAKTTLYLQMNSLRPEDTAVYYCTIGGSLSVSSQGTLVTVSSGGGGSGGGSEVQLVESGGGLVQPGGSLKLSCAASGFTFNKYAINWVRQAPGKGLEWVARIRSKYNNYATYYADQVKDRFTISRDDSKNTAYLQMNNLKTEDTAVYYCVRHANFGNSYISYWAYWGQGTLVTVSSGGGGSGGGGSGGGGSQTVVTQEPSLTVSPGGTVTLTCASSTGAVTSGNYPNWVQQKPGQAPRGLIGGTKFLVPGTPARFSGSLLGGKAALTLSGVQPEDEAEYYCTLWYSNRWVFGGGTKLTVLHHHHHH

| Kd (hFc · flag · hPSMA) | koff (hFc · flag · hPSMA) | kon (hFc · flag · hPSMA) | Binder | other results |
| --- | --- | --- | --- | --- |
|  |  |  | CSA (other, cynomolgus, UniProt A2V9Z4 25-608, looked up, also called cynomolgus serum albumin) DTHKSEVAHRFKDLGEEHFKGLVLVAFSQYLQQCPFEEHVKLVNEVTEFAKTCVADESAENCDKSLHTLFGDKLCTVATLRETYGEMADCCAKQEPERNECFLQHKDDNPNLPPLVRPEVDVMCTAFHDNEATFLKKYLYEVARRHPYFYAPELLFFAARYKAAFAECCQAADKAACLLPKLDELRDEGKASSAKQRLKCASLQKFGDRAFKAWAVARLSQKFPKAEFAEVSKLVTDLTKVHTECCHGDLLECADDRADLAKYMCENQDSISSKLKECCDKPLLEKSHCLAEVENDEMPADLPSLAADYVESKDVCKNYAEAKDVFLGMFLYEYARRHPDYSVMLLLRLAKAYEATLEKCCAAADPHECYAKVFDEFQPLVEEPQNLVKQNCELFEQLGEYKFQNALLVRYTKKVPQVSTPTLVEVSRNLGKVGAKCCKLPEAKRMPCAEDYLSVVLNRLCVLHEKTPVSEKVTKCCTESLVNRRPCFSALELDEAYVPKAFNAETFTFHADMCTLSEKEKQVKKQTALVELVKHKPKATKEQLKGVMDNFAAFVEKCCKADDKEACFAEEGPKFVAASQAALA | Kd [1]: 9.7 nM; Kd [2]: 25.4 nM; Kd (PSMA TriTAC (HTS)-C364 [3]): 8.6 nM; Kd (PSMA TriTAC (HDS)-C363 [4]): 8.4 nM; Kd (PSMA-TriTAC (p8)-C362 [5]): 6.6 nM |
|  |  |  | cynomolgus PSMA (other, the methods describe only the human PSMA-Fc format; also called cyno PSMA) KSSSEATNITPKHNMKAFLDELKAENIKKFLHNFTQIPHLAGTEQNFQLAKQIQSQWKEFGLDSVELTHYDVLLSYPNKTHPNYISIINEDGNEIFNTSLFEPPPAGYENVSDIVPPFSAFSPQGMPEGDLVYVNYARTEDFFKLERDMKINCSGKIVIARYGKVFRGNKVKNAQLAGATGVILYSDPADYFAPGVKSYPDGWNLPGGGVQRGNILNLNGAGDPLTPGYPANEYAYRRGIAEAVGLPSIPVHPIGYYDAQKLLEKMGGSASPDSSWRGSLKVPYNVGPGFTGNFSTQKVKMHIHSTSEVTRIYNVIGTLRGAVEPDRYVILGGHRDSWVFGGIDPQSGAAVVHEIVRSFGTLKKEGWRPRRTILFASWDAEEFGLLGSTEWAEENSRLLQERGVAYINADSSIEGNYTLRVDCTPLMYSLVYNLTKELESPDEGFEGKSLYESWTKKSPSPEFSGMPRISKLGSGNDFEVFFQRLGIASGRARYTKNWETNKFSSYPLYHSVYETYELVEKFYDPMFKYHLTVAQVRGGMVFELANSVVLPFDCRDYAVVLRKYADKIYNISMKHPQEMKTYSVSFDSLFSAVKNFTEIASKFSERLRDFDKSNPILLRMMNDQLMFLERAFIDPLGLPDRPFYRHVIYAPSSHNKYAGESFPGIYDALFDIESKVDPSQAWGEVKRQISIATFTVQAAAETLSEVA | Kd (PSMA TriTAC (HTS)-C364 [6]): 663 nM; Kd (PSMA TriTAC (HDS)-C363 [7]): 540 nM |
|  |  |  | human CD3-Flag-Fc protein (Fc fusion, UniProt P07766 23-126, looked up, also called CD3e; not shown: Flag tag) DGNEEMGGITQTPYKVSISGTTVILTCPQYPGSEILWQHNDKNIGGDEDDKNIGSDEDHLSLKEFSELEQSGYYVCYPRGSKPEDANFYLYLRARVCENCMEMD | Kd [8]: 7.4 nM; Kd (PSMA TriTAC (HTS)-C364 [9]): 7.7 nM; Kd (PSMA TriTAC (HDS)-C363 [10]): 8 nM; Kd (PSMA-TriTAC (p8)-C362 [11]): 8.3 nM |
|  |  |  | cynomolgus CD3 (receptor, UniProt Q95LI5 22-117, looked up, The methods describe only the human CD3-Flag-Fc format; also called cyno CD3e) QDGNEEMGSITQTPYQVSISGTTVILTCSQHLGSEAQWQHNGKNKEDSGDRLFLPEFSEMEQSGYYVCYPRGSNPEDASHHLYLKARVCENCMEMD | Kd (PSMA TriTAC (HTS)-C364 [12]): 3.8 nM; Kd (PSMA TriTAC (HDS)-C363 [13]): 5.2 nM; Kd (PSMA-TriTAC (p8)-C362 [14]): 4.3 nM; Kd [15]: 5.8 nM; Kd [16]: 4.7 nM |
| 15 nM | 0.0132 s⁻¹ | 877000 M⁻¹ s⁻¹ | Anti-PSMA wt sdAb.6his (VHH, Tested as supernatant of Expi293 cells; also called parental sdAb; parental anti-PSMA single domain antibody) VHH: EVQLVESGGGLVQPGGSLTLSCAASRFMISEYSMHWVRQAPGKGLEWVSTINPAGTTDYAESVKGRFTISRDNAKNTLYLQMNSLKPEDTAVYYCDGYGYRGQGTQVTVSS |  |
| 9.5 nM | 0.00366 s⁻¹ | 383000 M⁻¹ s⁻¹ | anti-PSMA E31P sdAb.6his (VHH) VHH: EVQLVESGGGLVQPGGSLTLSCAASRFMISPYSMHWVRQAPGKGLEWVSTINPAGTTDYAESVKGRFTISRDNAKNTLYLQMNSLKPEDTAVYYCDGYGYRGQGTQVTVSS |  |
| 5.6 nM | 0.00461 s⁻¹ | 822000 M⁻¹ s⁻¹ | anti-PSMA T56Q sdAb.6his (VHH) VHH: EVQLVESGGGLVQPGGSLTLSCAASRFMISEYSMHWVRQAPGKGLEWVSTINPAGQTDYAESVKGRFTISRDNAKNTLYLQMNSLKPEDTAVYYCDGYGYRGQGTQVTVSS |  |
| 0.21 nM | 0.000197 s⁻¹ | 936000 M⁻¹ s⁻¹ | anti-PSMA S33H G97SsdAb.6his (VHH) VHH: EVQLVESGGGLVQPGGSLTLSCAASRFMISEYHMHWVRQAPGKGLEWVSTINPAGTTDYAESVKGRFTISRDNAKNTLYLQMNSLKPEDTAVYYCDSYGYRGQGTQVTVSS |  |
| 6.7 nM | 0.00538 s⁻¹ | 800000 M⁻¹ s⁻¹ | anti-PSMA S33H T50D G97SsdAb.6his (VHH) VHH: EVQLVESGGGLVQPGGSLTLSCAASRFMISEYHMHWVRQAPGKGLEWVSDINPAGTTDYAESVKGRFTISRDNAKNTLYLQMNSLKPEDTAVYYCDSYGYRGQGTQVTVSS |  |
| 4.5 nM | 0.00248 s⁻¹ | 556000 M⁻¹ s⁻¹ | anti-PSMA G55K sdAb.6his (VHH) VHH: EVQLVESGGGLVQPGGSLTLSCAASRFMISEYSMHWVRQAPGKGLEWVSTINPAKTTDYAESVKGRFTISRDNAKNTLYLQMNSLKPEDTAVYYCDGYGYRGQGTQVTVSS |  |

From patent US20180161428A1 (HARPOON THERAPEUTICS, published 2018)
